Results from publication PMC4486081 (Oncogene, 2015).

Biological target: Recombinant full length FAK (focal adhesion kinase), GST-tagged, phospho-Y397 (UniProt Q05397 1-1052, phosphotyrosine at 397)
Assay: co-IP

Chain of Recombinant full length FAK (focal adhesion kinase), GST-tagged, phospho-Y397 (Q05397 whole entry): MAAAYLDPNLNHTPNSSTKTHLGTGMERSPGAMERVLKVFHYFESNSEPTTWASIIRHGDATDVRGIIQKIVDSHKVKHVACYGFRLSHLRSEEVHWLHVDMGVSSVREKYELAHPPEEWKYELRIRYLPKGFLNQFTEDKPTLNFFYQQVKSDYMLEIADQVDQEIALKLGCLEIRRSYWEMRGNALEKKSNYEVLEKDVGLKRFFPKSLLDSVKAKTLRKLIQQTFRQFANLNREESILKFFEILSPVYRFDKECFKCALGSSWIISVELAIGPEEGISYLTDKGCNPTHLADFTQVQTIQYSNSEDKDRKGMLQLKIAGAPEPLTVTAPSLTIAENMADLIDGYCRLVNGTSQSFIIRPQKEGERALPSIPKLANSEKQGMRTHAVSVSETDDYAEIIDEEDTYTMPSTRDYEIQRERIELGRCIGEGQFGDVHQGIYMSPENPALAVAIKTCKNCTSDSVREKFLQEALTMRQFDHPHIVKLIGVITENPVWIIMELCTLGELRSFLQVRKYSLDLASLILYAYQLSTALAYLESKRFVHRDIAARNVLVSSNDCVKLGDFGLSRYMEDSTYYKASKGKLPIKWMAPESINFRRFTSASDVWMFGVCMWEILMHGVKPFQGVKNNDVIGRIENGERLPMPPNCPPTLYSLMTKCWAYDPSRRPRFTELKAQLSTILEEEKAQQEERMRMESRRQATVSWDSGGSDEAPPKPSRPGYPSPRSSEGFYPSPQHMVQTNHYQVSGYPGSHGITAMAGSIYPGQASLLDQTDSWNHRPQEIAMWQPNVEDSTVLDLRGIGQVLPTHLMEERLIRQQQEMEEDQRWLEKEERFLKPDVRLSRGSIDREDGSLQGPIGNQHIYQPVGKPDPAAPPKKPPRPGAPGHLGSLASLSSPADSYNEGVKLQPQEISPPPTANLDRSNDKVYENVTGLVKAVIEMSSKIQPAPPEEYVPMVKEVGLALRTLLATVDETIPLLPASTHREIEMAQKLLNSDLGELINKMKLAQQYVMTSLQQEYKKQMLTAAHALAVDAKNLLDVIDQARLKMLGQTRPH

B1: Recombinant active PKM2 (pyruvate kinase M2), 1-531 aa with N-terminal His-tag (enzyme)
chain: not shown
- binding result: binds
